Data on 41 sequences can be found in the nanobody polyreactivity screen of Harvey et al. (2022).

The nature of this data set: yeast display, Sf9 membrane polyspecificity reagent, FACS + sequencing; frameworks hold sequencing errors. The procedure, abridged:
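After 36–48 hours of galactose induction, yeast (Saccharomyces cerevisiae BJ5465) displaying a synthetic nanobody library were stained at 4 °C for 1 hour with 10% biotinylated, detergent-solubilized Sf9 membrane reagent. Streptavidin microbeads enriched the stained cells before FACS sorting into low and high (top ~1%) gates on anti-HA and streptavidin fluorescence. Each clone's polyreactivity label reflects its gate of origin.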
On to “QVQLVESGGGLVQAGGSLRLSCAASGRIFWQNAMGWYRQAPGKERELVAAISSRGGTTYYADSVKGRFTISRDNAKNTVYLQMNSLKPEDTAVYYCNAALLLRYRGFFTVAAYDYWGLGTQVTVSS”, for which the “polyreactivity (PSR sort gate)” value is given as “low polyreactivity”.

With “QVQLVESGGGLVQAGGSLRLSCAASGFTFYDYAMVWYRQAPGKERELVAGITSTGRTYYADSVKGRFTISRDNAKNTVYLQMNSLKPEDTAVYYCNARTLPNYYRRYDYWGQGTEVTVSS”, the “polyreactivity (PSR sort gate)” value is on record as “high polyreactivity”.

“QVQLQESGGGLMQAGGSQRLSCAASGSISYYSDRGWYRQAPGKEREFVAGIGYGTTTNYADSVKGRFTTSRDNAKNTVYLQMICMKPEDTAVYYCAAYQGNGYEFYYWGQGTQVTVRS”: the “polyreactivity (PSR sort gate)” value is recorded as “low polyreactivity”.

Consider “QVQLVESGGGLVQAGGSLRLSCAASGSTFVYYALGWYRPSPGKERELVARITRSGGSTYYADSVKGRFTISRDNAKNTVYLQMNSLKPEDTAVYYCAAEQSVYFLVFTGVKFDYWGQGSQVTVSS”, for which the “polyreactivity (PSR sort gate)” value is listed as “low polyreactivity”.

For the sequence “QVQLVESGGGLVQAGGSLRLSCAASGRTFSANAMGWYRQAPGKERELVATISSGGRTNYADSVKGRFTISRDNAKNTVYLQMNSLKPEDTAVYYCAKRGPYNRWYGRYDYWGQGTQVTVSS”, the “polyreactivity (PSR sort gate)” value is reported as “low polyreactivity”.

Take “QVQLVESGGGLVQAGGSLRLSCAASGSTFLTNAMGWYRQAPGKERELGAAITWSTGSTYYADSVKGRFTISRDNAKNTVYLQMNSLKPEDTAVYYCNARSEVSYWWGGYWGQGTQVTVSS”: the “polyreactivity (PSR sort gate)” value is given as “low polyreactivity”.

With “QVQLVESGGGLVQAGGSLRLSCAASGSIFEPYAMGWYRQAPGKERELVAAIRVSGGSTYYADSVKGRFTISRDNAKNTVYLQMNSLKPEDTAVYYCAADWWSRYYYWGQGTQVTVSS”, the “polyreactivity (PSR sort gate)” value is listed as “high polyreactivity”.

For the sequence “QVQLEESGRGLVQAGGSLRLSCAASGRTFLQYAMGWYRQAPRKERELVAANTTSGGDTYYADSVKGRFTISRDNAKNTVYLQMNSLKPEDTAVYYCNADFRVYIPHVPYFVDFDYWGQGTQVTVSS”, the “polyreactivity (PSR sort gate)” value is “low polyreactivity”.

For “QVQLVESGGGLVQAGGSLRLSCAASGSIFYGNAMGWYRQAPGKERELVAAISNVGRTDYADSVKGRFTISRDNAKNTVYLQMNSLKPEDTAVYYCAAGVYSGYNRYFAPRSWFGYYYWGQGTQVTVSS”, the “polyreactivity (PSR sort gate)” value is recorded as “low polyreactivity”.

Regarding “QVQLVESGGGLVQAGGSLSLSCAASGFTFYYYAMGLYRQAPGKERELVAAISWSGGSTYYADSVKGRFTISRDIAKNSVYLQMNCLKPEYTAVYYCNAVGYTAYDYWGQGTQVTVSS”, the “polyreactivity (PSR sort gate)” value was “high polyreactivity”.

Regarding “QHQLVDSGVCLVQAGRSLRLSCDASGYTFYIYAMGWYTQAPRKERELVATISSSGGGTYYADSVKGRFTISRDNAKNTVYLQMNSLNPEDTAVYYCNADGWYWQAQGYDYWGQGTQVTVSS”, the “polyreactivity (PSR sort gate)” value was “low polyreactivity”.

In the case of “QVQLVESGGCIVQAGGSLRLSCAATGRTFYIYAMGWYRQPPGKESELVATITRGGSTNYADSVKGRFTSSRDNAKNTVYLQMNSLKPVDTAVYYCAAESYFTNWRNRYDYWGQGSQVTVSS”, the “polyreactivity (PSR sort gate)” value is on record as “high polyreactivity”.

Consider “QVQLQESGGGLVQAGGSLRPSCAASGSISDGVPMGCYRQAPGEERELVATTVLGATTNYADSVKGRFTISRGNAKNTVYLQMNSLKPEETAVYYCAAPLRYDKGFSYWGQGTQVTVSS”, for which the “polyreactivity (PSR sort gate)” value is listed as “low polyreactivity”.

In the case of “QVQLVESGGGLVQAGGSLRLSCAAYGRIFYRNVMGWYRQAPGKERELVAAITYRTGSTYYADSVKGRFTISRDNAKNTVYLQMNSLKPEDTAVYYCNVVPRNGQTWGYEYDYWGQGTQVTVSS”, the “polyreactivity (PSR sort gate)” value is recorded as “high polyreactivity”.

Turning to “QVQLVESGGGLVQAGGSLRLSCAASGSTFGAYAMGWSRQAPGKERELVAAISKRGGSTYYADSVKGRFTISRDNAKNTVYLQMNSLKPEDTAVYYCATDHFSPTYGYWGQGTQVTVSS”, the “polyreactivity (PSR sort gate)” value is reported as “low polyreactivity”.

Consider “QVQLVESAGGLVQAGGRLRLSCAASGITISYYAMGWYRQAPGKERELVASISWRGGGTYYADSVKGRFTISRDNAKNTVYLQMNSVKPEDTAVYYCAADEKLYITRYDYWGQGTQVTVSS”, for which the “polyreactivity (PSR sort gate)” value is given as “low polyreactivity”.

With “QVQLVESGGGIVQAGGSLRLSCAASGSTFQTYVMGWYRQAPGKERELVAAISSGGSTNYADSVKGRFTISRDNAKNTVYLQMNSLKPEDTAVYYCAKRWPYFRRGKDGYWGQGTQVTVSS”, the “polyreactivity (PSR sort gate)” value was “low polyreactivity”.

Consider “QVQLVESGGRLVQAGGSLRLSCAASGSTFWYYAMGWYRQAPGKERELVASITYSGGSTYYADSVKGRFTISRDTAKNTVYLQMNSLKPEDTAVYYCAAEGYYSNYHYWGQGTQVTVSS”, for which the “polyreactivity (PSR sort gate)” value is on record as “low polyreactivity”.

Turning to “QVQLVESGGGLVQAGGSLRLSCAASGSIFNYNAMGWYRQAPGKERELVAAMSGSGGRTYYADSVKGRFTISRDNAKYTVYLQMNSLKPEDTAVYYCATYVRITPYEYWGQGTQVTVSS”, the “polyreactivity (PSR sort gate)” value is given as “high polyreactivity”.

For the sequence “QVQLVESGGGLVQAGGSLRLSCAASGSTFTTNAMGWYRQAPGKERELVAAISWSGTTTYYADSVKGRFTISRDNAKNTVYLQMNSLKPEDTAVYYCAAQVVSGTVAYLDFGYWGQGTQVTVSS”, the “polyreactivity (PSR sort gate)” value is on record as “low polyreactivity”.

With “QDQLVESGGGLVQAGGSLRLSCAASGSTLYMYAMGWYRQAPGKERELVAAISWSDDTTYYADSVKGRFTISRDNAKNTVYLQMNSLKPEDTAVYYCNAETYYGNSFGPFSYDYWGQGTQVTVSS”, the “polyreactivity (PSR sort gate)” value was “low polyreactivity”.

In the case of “QVHLVESGGGLVQAGGSLRLSCAASGSIIKRNAMGWYRQAPGKERELVATISSGDGSTRYADSVKGRFTISRDNAKNTVYLQMNSLKPEDSAVYYCAAASAAGYDYWGQGTQVTVSS”, the “polyreactivity (PSR sort gate)” value is “low polyreactivity”.

For the sequence “QVQLVESGGGLVQAGGSLRLSCAASGSTFDSYAMGWYRQAPGKERELVAAITNGGSTYYADSVKGRFTISRDNAKNTVYLQMNSLKPEDTEVYYCATDDYLLDYLYDYWGQGTQVTVSS”, the “polyreactivity (PSR sort gate)” value is recorded as “low polyreactivity”.

For “QVQLVESGGGLVQAGGSLRLSCAASGFTFYYYTMGWYRQAPGKERELVAVITLSDGSTNYADSVKGRFTISRDNAKNTVYLQMNSLKPEDTAVYYCDAKYVDYGYHGYDYWGQGTQVTVSS”, the “polyreactivity (PSR sort gate)” value is on record as “low polyreactivity”.

Turning to “QVQLVESGGGLVQAGGSLRLSCAASGRTFQFYTMGWYRQAPGKERELVAVITVSSAATFYADTVKGRFTISRDNAKNTVSLQMNSLKPEDTAVYYCAAGLVLIVGMDSWGQGTQVTVSS”, the “polyreactivity (PSR sort gate)” value is “low polyreactivity”.

As to “QDQLVDSGGCLVQAGGSLSLSCAASGNTFNIYAMGWYRQAPGKEREFVAAITVSDTSTYYADSVKGRFTISRDNAKNTVYLKMHSLKPEDTSVYYCNADWWCTYDYYYWGQGTQGTVSS”, the “polyreactivity (PSR sort gate)” value is given as “low polyreactivity”.

With “QVQLVESGGGLVQAGGSLRLSCAASGRIFGPYAMGWYRQAPGKERELVAAISFSGSGTYYADSVKGRFTISRDNAKNTVYFQMNSLKPEDTAVYYCAATSRKIVAYDHDYWGQGTQVTVSS”, the “polyreactivity (PSR sort gate)” value is on record as “low polyreactivity”.

Consider “QDQLVESGGGLVQAGGSLRLSCAASGFTLSINAMGWYRQAPGKERELVAGISWSGGSTYYADSVKGRFTISRDNAKNTVYLQMNSLKPEDTAVYYCNADIYPDRYGSTNYDFNYWGQGTQVTVSS”, for which the “polyreactivity (PSR sort gate)” value is “low polyreactivity”.

On to “QVQLVESGGGLVQAGGSLRLSCAASGRNFARYVMGWYSQAPGKERELVASISNSGGSTYYADSVKGRFTISRDNAKNTVYLQMNSLKPEDTAVYYCARRYYYYTSYRYDYWGQGTQVTVSS”, for which the “polyreactivity (PSR sort gate)” value was “high polyreactivity”.

With “QVQLVESGGGLVQPGGSLRLSCAASGGIFYGYAMGWYRQAPGKERELVAAISSTGGRTYYADSVKGRFTISRDNAKNTVYLQMNSLKPEDTAVYYCAAEDFTRQFEYWGQGTQVTVSS”, the “polyreactivity (PSR sort gate)” value is “low polyreactivity”.

For “QDQLVESGGGLVQAGGSLRLSCAASGSIFSNNAMGWYRQAPGKERELVATITFSGGNTYYADSVKGRFTISRDNAKNTVYLQMNSLKPEDTAVYYCNADRYPVGTAREYDSWGQGTQVTVSS”, the “polyreactivity (PSR sort gate)” value is “low polyreactivity”.

Take “QVQLVESGGGLVQAGGSLRLSCAASGSIFDYYAMGWYRQAPGKERELVAAIDSGDITYYADSVKGRFTISRDNAKNTFYLQMNRLKPEDTAVYYCAAEGTGYSVGWQYGYWGQGTQVSVSS”: the “polyreactivity (PSR sort gate)” value is reported as “low polyreactivity”.

Regarding “QVQLVESGGGLVQAGGSLRLSCAASGSTFIRYVMGWYRQAPGKERELVASITISVGSTYADSVKGRFTISRDNAKHTVYLQMNSLKPEDTAVYYCNARYVENTPYPYDYWGQGTQVTVSS”, the “polyreactivity (PSR sort gate)” value is on record as “low polyreactivity”.

On to “QVQLVESGGGLVQAGGSLRLSCAASGSIFRGYAMGWYRQAPGKERELVAVITKSGGRTYYADSVKGRFTISRDNAKNTVYLQMNRLKPEDTAVYYCAKQPGSAYDYWGQGTQVTVSS”, for which the “polyreactivity (PSR sort gate)” value is given as “high polyreactivity”.

As to “QVQLVESGGGLVQAGGSLRLSCAASGFILYSYAMGWYRQAPGKERELVAAINSTGSTYYADSVKGRFTISRDNAKNTVYLQMNSLKPEDTAVYYCATDPWYQTDHSYDTPYYYWGQGTQVTVSS”, the “polyreactivity (PSR sort gate)” value is listed as “low polyreactivity”.

Take “QVHLVESGGGLVQAGGSLRLSCAASGRIFPKNGMGWYRQAPGTERDLVAAITSGTSTYYADSVKGRFTISRDNAKNTVYLQMNRLKPEDTAVYYCAARPTDGSGWPYRWTSDYWGQGTQVTVSS”: the “polyreactivity (PSR sort gate)” value is on record as “low polyreactivity”.

Turning to “QVQLVESGGGLVQAGGSLRLSCAASGSIFLKYDMGWYRQAPGKERELVAAISRGGDTNYADSVKGLFTISRDNAKNCVYLQMNSLKPEDTAVYDCAARPGLYFTRRGRYYLGQGTQVTVSS”, the “polyreactivity (PSR sort gate)” value was “high polyreactivity”.

“QVQLVESGGGLVQAGGSLRLSCAPSGRTVRYNAMGWYRQAPGKERELVARITWSGGRTYYADSVKGRFTISRDNAKNTVYLQMNSLKPEDTAVNYGNAPSIAGYAEYNSHDYWGQGTQVTVSS”: the “polyreactivity (PSR sort gate)” value is “high polyreactivity”.

Consider “QVQLVESGGGLVQAGGSLRLRCAAMGWYRQAPWKERELVAGITRDGNTYYADSVKGRFTISRDNAKNTVYLQMNSLKPEDTAVYYCAAKHPKKYSYWGQGTQVSVSS”, for which the “polyreactivity (PSR sort gate)” value is “low polyreactivity”.

For “QVQLVESGGGLVQAGGSLRLSCAASGRIFYRYARGWYRQAPGKERELVAAITSGTSTNYADSVKGRFTFSRDNAKNTVYLQMNSLKPEDTAVYYCAKRYYCKYAEYDYWGQGTQVTVSS”, the “polyreactivity (PSR sort gate)” value is on record as “high polyreactivity”.

As for “QVQLVESGGGLVQAGGSLRLSCAASGIIFRWYTMGWYRQAPGKEREVVAAITGRGGSTYYADSVKGRFTISRDNAKNTVYLQMNSLKPEDSAVYYCAAQYSYPTPYRTYEYDYWGQGTQVTVSS”, the “polyreactivity (PSR sort gate)” value is listed as “high polyreactivity”.
